# Where “and” joins values, the source holds several entries; their conditions need not be identical. Equal entries are not always repeated. Bridges are numbered along the chain shown (N, C = ends). Where no end group is shown, it is not given here. [ ]: non-standard residue; d: D form. The star is where a group is joined. Palmitoyl = CCCCCCCCCCCCCCCC(=O)*; Chg = N[C@H](C(=O)O)C1CCCCC1; NMeA = CN[C@@H](C)C(=O)O
# T1: β-catenin (UniProt P35222 134-665, limits assumed, biotinylated in the SPR and plate assays)
# T1 construct: also called beta catenin; biotinylated β-catenin
# T1 sequence (looked up): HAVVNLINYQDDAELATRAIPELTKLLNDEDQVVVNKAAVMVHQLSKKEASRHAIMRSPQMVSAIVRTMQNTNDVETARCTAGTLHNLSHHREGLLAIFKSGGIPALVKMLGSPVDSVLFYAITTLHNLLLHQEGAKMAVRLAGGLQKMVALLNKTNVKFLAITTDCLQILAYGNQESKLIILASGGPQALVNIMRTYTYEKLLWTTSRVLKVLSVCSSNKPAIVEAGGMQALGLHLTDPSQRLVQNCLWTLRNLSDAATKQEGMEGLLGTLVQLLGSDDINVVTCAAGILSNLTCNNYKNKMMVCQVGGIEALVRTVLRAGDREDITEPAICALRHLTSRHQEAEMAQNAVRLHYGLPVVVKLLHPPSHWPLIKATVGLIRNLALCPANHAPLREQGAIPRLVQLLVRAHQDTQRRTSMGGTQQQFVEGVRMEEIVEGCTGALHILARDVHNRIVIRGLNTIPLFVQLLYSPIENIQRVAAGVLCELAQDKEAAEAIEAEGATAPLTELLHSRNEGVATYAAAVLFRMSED
# B1: SEQ ID NO: 240 (peptide)
# peptide: MWILISFW
# HELM: PEPTIDE1{[ac].M.W.I.L.I.S.F.W.[O=C(O)CCCN[*:1]]}$$$$V2.0
# SMILES: CC[C@H](C)[C@H](NC(=O)[C@H](CC(C)C)NC(=O)[C@@H](NC(=O)[C@H](Cc1c[nH]c2ccccc12)NC(=O)[C@H](CCSC)NC(C)=O)[C@@H](C)CC)C(=O)N[C@@H](CO)C(=O)N[C@@H](Cc1ccccc1)C(=O)N[C@@H](Cc1c[nH]c2ccccc12)C(=O)NCCCC(=O)O
# B2: SEQ ID NO: 243 (peptide)
# peptide: KWFLIXAWD
# HELM: PEPTIDE1{[ac].K.W.F.L.I.[Abu].A.W.D}$PEPTIDE1,PEPTIDE1,2:R3-10:R3$$$V2.0
# SMILES: CC[C@@H]1NC(=O)[C@H]([C@@H](C)CC)NC(=O)[C@H](CC(C)C)NC(=O)[C@H](Cc2ccccc2)NC(=O)[C@H](Cc2c[nH]c3ccccc23)NC(=O)[C@@H](NC(C)=O)CCCCNC(=O)C[C@@H](C(=O)O)NC(=O)[C@H](Cc2c[nH]c3ccccc23)NC(=O)[C@H](C)NC1=O
# B3: SEQ ID NO: 415 (peptide)
# peptide: WAQKILDEHGSRVWG
# HELM: PEPTIDE1{W.[meA].Q.K.I.L.D.E.H.[O=C([C@@H](N[*:1])C1CCCCC1)[*:2]].S.R.V.W.G.[am]}$PEPTIDE1,PEPTIDE1,4:R3-8:R3$$$V2.0
# SMILES: CC[C@H](C)[C@@H]1NC(=O)[C@@H](NC(=O)[C@H](CCC(N)=O)NC(=O)[C@H](C)N(C)C(=O)[C@@H](N)Cc2c[nH]c3ccccc23)CCCCNC(=O)CC[C@@H](C(=O)N[C@@H](Cc2c[nH]cn2)C(=O)N[C@H](C(=O)N[C@@H](CO)C(=O)N[C@@H](CCCNC(=N)N)C(=O)N[C@H](C(=O)N[C@@H](Cc2c[nH]c3ccccc23)C(=O)NCC(N)=O)C(C)C)C2CCCCC2)NC(=O)[C@H](CC(=O)O)NC(=O)[C@H](CC(C)C)NC1=O
# B4: SEQ ID NO: 416 (peptide)
# peptide: WAQKILDEHGSRVWG
# HELM: PEPTIDE1{[ac].W.[meA].Q.K.I.L.D.E.H.[O=C([C@@H](N[*:1])C1CCCCC1)[*:2]].S.R.V.W.G.[am]}$PEPTIDE1,PEPTIDE1,5:R3-9:R3$$$V2.0
# SMILES: CC[C@H](C)[C@@H]1NC(=O)[C@@H](NC(=O)[C@H](CCC(N)=O)NC(=O)[C@H](C)N(C)C(=O)[C@H](Cc2c[nH]c3ccccc23)NC(C)=O)CCCCNC(=O)CC[C@@H](C(=O)N[C@@H](Cc2c[nH]cn2)C(=O)N[C@H](C(=O)N[C@@H](CO)C(=O)N[C@@H](CCCNC(=N)N)C(=O)N[C@H](C(=O)N[C@@H](Cc2c[nH]c3ccccc23)C(=O)NCC(N)=O)C(C)C)C2CCCCC2)NC(=O)[C@H](CC(=O)O)NC(=O)[C@H](CC(C)C)NC1=O
# B5: SEQ ID NO: 420 (peptide)
# peptide: WAQKGLDEHVQRVWG
# HELM: PEPTIDE1{W.[meA].Q.K.[O=C([C@@H](N[*:1])C1CCCCC1)[*:2]].L.D.E.H.V.Q.R.V.W.G.[am]}$PEPTIDE1,PEPTIDE1,4:R3-8:R3$$$V2.0
# SMILES: CC(C)C[C@@H]1NC(=O)[C@H](C2CCCCC2)NC(=O)[C@@H](NC(=O)[C@H](CCC(N)=O)NC(=O)[C@H](C)N(C)C(=O)[C@@H](N)Cc2c[nH]c3ccccc23)CCCCNC(=O)CC[C@@H](C(=O)N[C@@H](Cc2c[nH]cn2)C(=O)N[C@H](C(=O)N[C@@H](CCC(N)=O)C(=O)N[C@@H](CCCNC(=N)N)C(=O)N[C@H](C(=O)N[C@@H](Cc2c[nH]c3ccccc23)C(=O)NCC(N)=O)C(C)C)C(C)C)NC(=O)[C@H](CC(=O)O)NC1=O
# B6: SEQ ID NO: 456 (peptide)
# peptide: WXQKILNDHGQRVW
# HELM: PEPTIDE1{[CCCCCCCCCCCC(=O)[*:2]].W.[Aib].Q.K.I.L.N.D.H.[O=C([C@@H](N[*:1])C1CCCCC1)[*:2]].Q.R.V.W.[am]}$PEPTIDE1,PEPTIDE1,5:R3-9:R3$$$V2.0
# SMILES: CCCCCCCCCCCC(=O)N[C@@H](Cc1c[nH]c2ccccc12)C(=O)NC(C)(C)C(=O)N[C@@H](CCC(N)=O)C(=O)N[C@H]1CCCCNC(=O)C[C@@H](C(=O)N[C@@H](Cc2c[nH]cn2)C(=O)N[C@H](C(=O)N[C@@H](CCC(N)=O)C(=O)N[C@@H](CCCNC(=N)N)C(=O)N[C@H](C(=O)N[C@@H](Cc2c[nH]c3ccccc23)C(N)=O)C(C)C)C2CCCCC2)NC(=O)[C@H](CC(N)=O)NC(=O)[C@H](CC(C)C)NC(=O)[C@H]([C@@H](C)CC)NC1=O
# B7: SEQ ID NO: 477 (peptide)
# peptide: W[NMeA]QKILDEH[Chg]EAVWK
# modifications: lactam 11-15, 4-8 (inferred); not fully specified (N-terminus); printed as H23C11C(O)-NH-W-NMeA-QK*ILDE*H-Chg-E*AVWK*
# B8: SEQ ID NO: 486 (peptide)
# peptide: PQKILDEHVQRVMK-NH2
# modifications: bridge 3-7; not fully specified (N-terminus); printed as H23C11C(O)-PQK*ILDE*HVQRVMK-NH2; also: K3* and E7* marked (linkage not given here)
# B9: SEQ ID NO: 489 (peptide)
# peptide: PQKILDEH[Chg]QRVMK-NH2
# modifications: lactam 3-7; not fully specified (N-terminus); printed as H23C11C(O)-PQK*ILDE*H-Chg-QRVMK-NH2
# Target: T1, β-catenin
# Assay: competitive FP
# Source text: Fluorescence polarization (FP) is another method used to analyze protein-ligand interactions. This methodology measures the change in fluorescence light emitted by a labelled compound free vs. conjugated to another compound in solution. Upon binding of the fluorescent molecule to a complex, polarization increases because of limited rotation of the fluorescent tracer. Competitive FP is often utilized in drug screens as it is formatted for high throughput screens in a plate format. This immunoassay is performed by introducing a non-conjugated drug to compete for binding to the labelled competitor-ligand complex, leading to a reduction in polarization. […] Exemplary methodology is described in Example 13. Data were analyzed and plotted in Microsoft Excel (Microsoft, Redmond, WA).
# Varying concentrations of β-catenin inhibitor candidate (SEQ ID NO: 404) were then added in a series of serial dilutions from 10 nM to 30 uM of inhibitor in different wells of the plate. The fluorescence polarization was read by Infinite M1000 (Tecan, Baldwin Park CA) at excitation wavelength of 470 nm and measured at emission wavelength of 520 nm. […] The experiments were performed three times and data were analyzed and plotted in Microsoft Excel (Microsoft, Redmond, WA).
row,Binder,Kd
1,B1,≤ 0.4 µM
2,H-MWFLISFWA-OH [SEQ ID NO: 7],> 10 µM and ≤ 30 µM
3,H-MWFLASFWG-OH [SEQ ID NO: 11],> 0.4 µM and ≤ 1 µM
4,H-MWALISFWG-OH [SEQ ID NO: 13],> 0.4 µM and ≤ 1 µM
5,KWFLICAWD (not fully specified; cyclo-H2N-K(GABA*)WFLICAWD*-COOH) [SEQ ID NO: 247],≤ 0.4 µM
6,KWFLICAWD (not fully specified; cyclo-H2N-K(Ahx*)WFLICAWD*-COOH) [SEQ ID NO: 249],> 0.4 µM and ≤ 1 µM
7,Ac-MWFLIAFWG-OH [SEQ ID NO: 274],≤ 0.4 µM
8,Ac-WILIAFWG-OH [SEQ ID NO: 263],> 0.4 µM and ≤ 1 µM
9,B2,> 10 µM and ≤ 30 µM
10,B3,≤ 0.4 µM
11,B4,≤ 0.4 µM
12,B5,> 0.4 µM and ≤ 1 µM

# Target: T1, β-catenin
# Assay: cell-based or functional assay
row,Binder,Wnt Reporter EC50
1,B6,≤ 7.5 µM
2,"Ac-W[NMeA]QKILDEH[Chg]EAVWK (lactam 11-15, 4-8 (inferred)) [SEQ ID NO: 476]",> 7.5 µM and ≤ 15 µM
3,B7,≤ 7.5 µM
4,Ac-PQKILDEHVQRVMK-NH2 (bridge 3-7; also: K3* and E7* marked (linkage not given here)) [SEQ ID NO: 485],> 30 µM
5,B8,> 30 µM
6,Palmitoyl-PQKILDEHVQRVMK-NH2 (bridge 3-7; also: K3* and E7* marked (linkage not given here)) [SEQ ID NO: 487],≤ 7.5 µM
7,Ac-PQKILDEH[Chg]QRVMK-NH2 (lactam 3-7) [SEQ ID NO: 488],≤ 7.5 µM
8,B9,> 15 µM and ≤ 22.5 µM
9,Palmitoyl-PQKILDEH[Chg]QRVMK-NH2 (bridge 3-7; also: K3* and E7* marked (linkage not given here)) [SEQ ID NO: 490],≤ 7.5 µM
10,H-MSRMWFLISFWTG-OH [SEQ ID NO: 44],> 15 µM and ≤ 22.5 µM
11,H-MWFLISFWRG-OH [SEQ ID NO: 49],≤ 7.5 µM
12,H-MSRMWFLICFWG-OH [SEQ ID NO: 46],≤ 7.5 µM
13,H-MSRMWILISFWG-OH [SEQ ID NO: 51],> 7.5 µM and ≤ 15 µM

# — patent US20260098059A1 (ENDOMET BIOSCIENCES, published 2026)
